Test results published in PMC10243368.

Molecular target: KRAS G12V (whole mutated KRAS gene linked to the LAMP3 signal peptide, as mRNA) peptide on (human)
Assay: B13.1 TILs stimulated with APCs loaded with KRAS G12V mRNA, sorted PI- CD3+ CD137+, 10x single-cell V(D)J sequencing; ex vivo sorted cells
Conditions: chains alpha TRAV23/DV6*01 TRAJ58*01 CDR3:beta TRBV5-6*01 TRBJ2-7*01 CDR3

clonotype frequency among the sorted CD3+ CD137+ cells: 32.8%
B1: B13.1.2 (peptide)
chain 1: CAASEETSGSRLTF
chain 2: CASSWNLQASYEQYF
